This experiment concerns the target Canonical-type transient receptor potential cation channel type 3 (TRPC3) (rabbit (endogenous in skeletal muscle)). Kind of experiment: co-IP.

Data on 1 substance can be found in PMC2990405.

As for “GST-JP2 fragment F1-3 (a.a. 143-215) (from UniProt Q9ET78 143-215) (domain or fragment)”, the ratio of GST-band/TRPC3-band intensities normalised to F1-1 (set as 1) was 0.25.
